Laboratory results taken from patent publication US20130122005A1, “ANTICANCER COMBINATION THERAPY” (priority 2011, published 2013).

Target: human IGF-1R (human) (UniProt P08069)
Assay: cell-based or functional assay

human IGF-1R (human), sequence (P08069 31-1367): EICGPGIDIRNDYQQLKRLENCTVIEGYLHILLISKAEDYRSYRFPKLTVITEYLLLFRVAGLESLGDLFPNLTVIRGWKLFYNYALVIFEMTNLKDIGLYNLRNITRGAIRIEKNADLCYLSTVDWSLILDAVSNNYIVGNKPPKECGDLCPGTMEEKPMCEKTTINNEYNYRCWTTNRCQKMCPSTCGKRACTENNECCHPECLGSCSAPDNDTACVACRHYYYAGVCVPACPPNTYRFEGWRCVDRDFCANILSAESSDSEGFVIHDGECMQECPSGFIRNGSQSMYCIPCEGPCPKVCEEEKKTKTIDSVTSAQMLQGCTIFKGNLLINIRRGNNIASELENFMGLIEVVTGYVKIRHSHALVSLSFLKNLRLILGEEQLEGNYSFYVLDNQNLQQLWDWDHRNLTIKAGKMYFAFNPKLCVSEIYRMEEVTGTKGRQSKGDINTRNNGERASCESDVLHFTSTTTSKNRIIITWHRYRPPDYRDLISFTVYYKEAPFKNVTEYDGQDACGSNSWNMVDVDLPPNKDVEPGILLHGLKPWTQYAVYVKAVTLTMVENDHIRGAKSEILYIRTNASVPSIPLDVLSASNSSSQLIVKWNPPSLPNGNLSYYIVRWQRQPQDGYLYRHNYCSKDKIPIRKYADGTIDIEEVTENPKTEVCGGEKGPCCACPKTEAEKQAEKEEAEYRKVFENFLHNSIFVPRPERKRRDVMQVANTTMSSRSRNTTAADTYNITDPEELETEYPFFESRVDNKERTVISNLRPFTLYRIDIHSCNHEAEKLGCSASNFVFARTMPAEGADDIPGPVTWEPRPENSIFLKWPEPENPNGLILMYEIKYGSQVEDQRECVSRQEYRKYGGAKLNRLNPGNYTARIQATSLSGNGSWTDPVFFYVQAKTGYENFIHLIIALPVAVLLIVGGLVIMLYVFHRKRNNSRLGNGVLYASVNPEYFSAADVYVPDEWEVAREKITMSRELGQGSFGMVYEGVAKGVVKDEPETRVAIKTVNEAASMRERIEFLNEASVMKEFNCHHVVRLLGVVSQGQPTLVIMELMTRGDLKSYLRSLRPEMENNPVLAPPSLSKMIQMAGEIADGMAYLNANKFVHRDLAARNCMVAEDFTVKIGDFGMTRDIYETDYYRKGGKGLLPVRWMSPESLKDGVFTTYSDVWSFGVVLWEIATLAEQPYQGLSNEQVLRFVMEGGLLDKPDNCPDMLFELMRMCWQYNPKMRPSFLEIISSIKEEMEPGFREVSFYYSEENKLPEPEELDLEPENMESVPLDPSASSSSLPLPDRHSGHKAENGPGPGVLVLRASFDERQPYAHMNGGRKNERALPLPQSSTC

% Remaining Phosphorylation at 15 µg/mL (100 nM) Inhibitor, IGF-1 (20 ng/mL) induced IGF-1R phosphorylation: 35%
% Remaining Phosphorylation at 15 µg/mL (100 nM) Inhibitor, IGF-2 (100 ng/mL) induced IGF-1R phosphorylation: 76%
% Remaining Phosphorylation at 15 µg/mL (100 nM) Inhibitor, human serum (20%) induced IGF-1R phosphorylation: 120%
IC50, IGF-1 (20 ng/mL) induced IGF-1R phosphorylation, cell-based ELISA: 1.16 µg/mL
IC50, IGF-2 (100 ng/mL) induced IGF-1R phosphorylation, cell-based ELISA: > 15 µg/mL
IC50, human serum (20%) induced IGF-1R phosphorylation, cell-based ELISA: > 15 µg/mL
Substance: IGF-1R antibody αIR3 (Calbiochem, No. GR11L)
